Measurements: patent publication US20110124006A1, “METHOD FOR SCREENING OF THERAPEUTIC AGENT FOR CANCER” (Hismitsu Pharmaceutical Co., Inc., priority 2008, published 2011)

Columns and labels:
MYCN expression = test: Immunoblot of MYCN expression in SK-N-BE cells treated with EGF; assay type: cell-based
Protocol: A neuroblastoma cell line SK-N-BE was cultured for 10 hours in media containing EGF at a variety of concentrations, by using an anti-phosphorylated EGFR antibody, an anti-EGFR antibody, an anti-MYCN antibody and an anti-actin antibody, the phosphorylation of an EGF receptor and the expression of MYCN were analyzed by an immunoblot method. FIG. 19 is a photograph showing a result of immunoblot. […] FIG. 20 is a photograph in which SK-N-BE cells were cultured in a medium containing 10 ng/ml EGF for different periods of time and the expression of MYCN was analyzed by an immunoblot method using an anti-MYCN antibody and an anti-actin antibody. […] From the above-mentioned results, it is thought that the following positive feed-back mechanism is present. That is to say, by EGF treatment, an EGFR signal is activated and the expression of MYCN is promoted. Next, by MYCN, transcription of NLRR1 is promoted. Next, the expression of NLRR1 is increased and activated. Next, by NLRR1, an EGFR signal is activated. Next, the expression of MYCN is further promoted.

[1] = system: SK-N-BE cells, NLF cells, SH-SY5Y cells, SMS-SAN cells; test: MTT assay, EGF-induced proliferation of neuroblastoma-derived cells; assay type: cell-based; conditions: SK-N-BE, NLF, SH-SY5Y, SMS-SAN cells, 10 ng/ml EGF
Protocol: SK-N-BE cells, NLF cells, SH-SY5Y cells, SMS-SAN cells, which are cell lines derived from neuroblastoma, and SK-N-BE cells into which siRNA against NLRR1 was introduced were cultured in the presence and absence of 10 ng/ml EGF, and the cell proliferation was quantified by the MTT assay over time. FIG. 28 is a graph showing the cell proliferation, showing the change fold ratio of the proliferation of cells in the presence of EGF to the proliferation of cells in the absence of EGF.

B1: epidermal growth factor (protein, UniProt P01133 23-1207, looked up)
Pro-epidermal growth factor: PQHWSCPEGTLAGNGNSTCVGPAPFLIFSHGNSIFRIDTEGTNYEQLVVDAGVSVIMDFHYNEKRIYWVDLERQLLQRVFLNGSRQERVCNIEKNVSGMAINWINEEVIWSNQQEGIITVTDMKGNNSHILLSALKYPANVAVDPVERFIFWSSEVAGSLYRADLDGVGVKALLETSEKITAVSLDVLDKRLFWIQYNREGSNSLICSCDYDGGSVHISKHPTQHNLFAMSLFGDRIFYSTWKMKTIWIANKHTGKDMVRINLHSSFVPLGELKVVHPLAQPKAEDDTWEPEQKLCKLRKGNCSSTVCGQDLQSHLCMCAEGYALSRDRKYCEDVNECAFWNHGCTLGCKNTPGSYYCTCPVGFVLLPDGKRCHQLVSCPRNVSECSHDCVLTSEGPLCFCPEGSVLERDGKTCSGCSSPDNGGCSQLCVPLSPVSWECDCFPGYDLQLDEKSCAASGPQPFLLFANSQDIRHMHFDGTDYGTLLSQQMGMVYALDHDPVENKIYFAHTALKWIERANMDGSQRERLIEEGVDVPEGLAVDWIGRRFYWTDRGKSLIGRSDLNGKRSKIITKENISQPRGIAVHPMAKRLFWTDTGINPRIESSSLQGLGRLVIASSDLIWPSGITIDFLTDKLYWCDAKQSVIEMANLDGSKRRRLTQNDVGHPFAVAVFEDYVWFSDWAMPSVMRVNKRTGKDRVRLQGSMLKPSSLVVVHPLAKPGADPCLYQNGGCEHICKKRLGTAWCSCREGFMKASDGKTCLALDGHQLLAGGEVDLKNQVTPLDILSKTRVSEDNITESQHMLVAEIMVSDQDDCAPVGCSMYARCISEGEDATCQCLKGFAGDGKLCSDIDECEMGVPVCPPASSKCINTEGGYVCRCSEGYQGDGIHCLDIDECQLGEHSCGENASCTNTEGGYTCMCAGRLSEPGLICPDSTPPPHLREDDHHYSVRNSDSECPLSHDGYCLHDGVCMYIEALDKYACNCVVGYIGERCQYRDLKWWELRHAGHGQQQKVIVVAVCVVVLVMLLLLSLWGAHYYRTQKLLSKNPKNPYEESSRDVRSRRPADTEDGMSSCPQPWFVVIKEHQDLKNGGQPVAGEDGQAADGSMQPTSWRQEPQLCGMGTEQGCWIPVSSDKGSCPQVMERSFHMPSYGTQTLEGGVEKPHSLLSANPLWQQRALDPPHQMELTQ
modifications: Pro-epidermal growth factor
notes: epidermal growth factor, purchased from Sigma
MYCN expression; 10 ng/ml EGF, different periods of time
  expression of MYCN (immunoblot), time course: Increased expression of MYCN by EGF over time
MYCN expression; 10 hours, EGF at a variety of concentrations
  expression of MYCN (immunoblot), EGF concentration dependence: the expression of MYCN is increased depending upon the concentration of EGF
[1]
  proliferation of cells (MTT assay, fold ratio with vs without EGF): the proliferation of cells derived from neuroblastoma is promoted
